Measurements published in the Human Domainome abundance scans (Beltran et al. 2025).

B1: Membrane-associated guanylate kinase, WW and PDZ domain-containing protein 2, residues 296 to 340; numbered along this chain, Q86UL8 (parent)
chain: EDNEEPDPLPDNWEMAYTEKGEVYFIDHNTKTTSWLDPRLAKKAK
B2: Poly(rC)-binding protein 1, residues 278 to 350; numbered along this chain, Q15365 (parent)
chain: TQTTHELTIPNNLIGCIIGRQGANINEIRQMSGAQIKIANPVEGSSGRQVTITGSAASISLAQYLINARLSSE

Variants of: B1
Assay: abundance fitness (aPCA) (normalised: wild type 0, dead -1); higher = more abundant; growth selection in yeast, the domain comes from the species named
Conditions: Homo sapiens

Abundance fitness, by site and new letter:
N12: C -0.163
Y17: I 0.017 | W 0.021 | C 0.004 | P -0.828 | F -0.029 | G -0.349
N29: P -0.673 | Y -0.122
K20: D -0.022 | M -0.004 | Q 0.018
A44: L -0.111 | E 0.07
D2: Y 0.063 | V 0.074 | Q 0.08 | P -0.01
I26: V 0.01 | S -0.677
Y24: A -0.664 | V -0.598
T18: Y -0.93 | G -0.354 | E -0.574 | L -0.514 | S -0.048
P8: D -0.121 | E -0.069 | A -0.014 | L 0.021
K45: V 0.209
E22: K -0.234 | P -0.825 | T -0.295
T32: F -0.843
F25: T -0.839 | K -0.637
K31: T -0.355 | S -0.114 | W -0.2
K43: T -0.043
A41: F -0.113
A16: M -0.254 | W -0.598 | Y -0.432 | V -0.271
H28: E -0.642 | K -0.269
V23: W -0.295 | Q 0.14
E4: A 0.016 | P 0.138 | R 0.109
P6: V 0.034 | R 0.029 | C -0.081
W13: G -0.787
P10: Q -0.469 | A -0.528 | V -0.54
K42: L 0.046 | D -0.05
R39: S -0.395 | V -0.52 | A -0.514 | C -0.478
T30: A -0.107 | F -0.575
L36: W -0.078 | N -0.186
P38: V -0.979
D37: R -0.152 | S -0.456
E14: Q 0.032 | N -0.241
G21: Y -0.337 | H -0.081 | D -0.169 | V -0.975 | L -0.329
M15: V -0.121
S34: V -0.758 | W -0.784 | C -0.181
L40: P 0.043 | A 0.059
E19: A 0.054 | N 0.031
D11: T 0.042 | W -0.074 | P -0.099
L9: S -0.453
E1: Y 0.094 | I -1.23 | L -0.023 | P 0

Variants of: B2
Assay: as above
Conditions: Homo sapiens

Abundance fitness: each site, then its substitutions
A68: N 0.163 | I -0.296 | G -0.122 | V -0.185 | H 0.188 | E 0.21 | Q 0.14 | C 0.271 | L -0.206 | W -0.581 | F -0.459 | R -0.001 | M -0.032 | S 0.048
A62: E -0.902 | K -0.888 | M -0.948 | T -0.794 | W -0.882 | G -0.622 | D -0.711 | N -0.828 | R -0.734 | P -0.606 | V -0.448 | Q -0.78 | C -0.768 | F -0.657
L61: I 0.012 | M 0.001 | V -0.052 | E 0.091 | N -0.278 | W -0.238 | Q 0.111 | G -0.504 | T 0.139 | R 0.253 | C 0.022 | K 0.266 | D 0.02 | P -0.943 | S 0.084 | F -0.074
Y64: T 0.287 | W -0.209 | N 0.328 | L -0.031 | V 0.121 | P -0.312 | H 0.064 | S 0.24 | F -0.266 | M -0.098 | E 0.298 | R 0.28 | D 0.411 | G 0.212 | K 0.233 | Q 0.14 | C 0.195
S72: E 0.222 | C -0.052 | D -0.107 | L -0.114 | Q -0.401 | H -0.07 | R 0.123 | K -0.072 | P -0.562 | I -0.448 | Y -0.152 | T 0.222 | V -0.072 | A -0.039 | M -0.058 | N 0.161 | G -0.031
S60: D 0.191 | A -0.064 | I -0.337 | T 0.012 | C -0.098 | V -0.352 | P -0.635 | F -0.102 | Y -0.298 | L -0.354 | H 0.051 | G -0.05 | Q 0.023 | K -0.047 | E 0.124
S71: Q -0.194 | H -0.371 | F -0.21 | K -0.03 | T -0.092 | G -0.062 | D -0.044 | A -0.037 | W -0.195 | R -0.056 | L -0.184 | M 0.105 | V -0.14 | Y -0.258 | P 0.024 | I -0.434
L70: I -0.217 | S -0.614 | K -0.378 | W -0.521 | M -0.228 | N -0.465 | P -0.499 | V -0.05 | R -0.53
I59: Y -0.93 | C 0.098 | L -0.355 | Q -0.421 | K -0.323 | D -0.567 | P -0.764 | V 0.063 | E -0.626 | G -0.66 | M -0.477 | A -0.044 | N -0.423 | T -0.008 | W -0.752
L65: R -0.689 | E -0.191 | M -0.36 | W -0.166 | D -0.419 | P -0.779 | Q -0.442 | G -0.416 | S -0.582 | V -0.789 | Y -0.093 | A 0.076 | K -0.422 | T -0.462
E73: L -0.004 | G -0.016 | P -0.161 | R -0.019 | A 0.078 | W -0.325 | F 0.315 | D 0.212 | C -0.14 | V 0.182 | M 0.245 | S 0.302 | T -0.03
R69: K 0.119 | C -0.344 | W -0.596 | E -0.371 | T -0.079 | S -0.081 | Q -0.016 | F 0.355 | V -0.479 | G -0.626 | P -0.701 | L -0.328 | A -0.067 | I -0.258 | H -0.405 | M -0.414
N67: S -0.019 | L -0.18 | T -0.148 | I -0.194 | F 0.034 | P -0.782 | R -0.147 | C -0.193 | D 0.066 | M -0.135 | E -0.082 | V -0.504 | Q -0.32 | A -0.152 | W -0.208 | K -0.137 | H -0.146 | G -0.082 | Y 0.002
I66: F -0.414 | L -0.076 | A -0.438 | C -0.188 | W -1.2 | Q -1.16 | G -0.594 | P -0.459 | R -0.996 | H 0.299 | S -0.721 | M -0.094 | V -0.285
Q63: G -0.264 | A -0.077 | I 0.064 | M -0.04 | P -1.17 | L 0.116 | K 0.223 | F -0.175 | V -0.019 | W -0.28 | D 0.091 | T 0.006 | E -0.002 | C -0.078 | H -0.124 | Y -0.469
S58: M -0.354 | V -0.568 | L -0.801 | K -0.3 | E 0.052 | T -0.241 | I -0.988 | F -0.149 | P -0.47 | W -0.949 | G -0.227 | Q 0.08 | N 0.009
